Fewer inactive variants are shown than the library holds.
B1: TPR 5TU (parent)
chain: GGAUCUUCUCGAUCUAACAAAAAAGACAAAUCUGCCACAAAGCUUGAGAGCAUCUUCGGAUGCAGAGGCGGCAGCCUUCGGUGGCGCGAUAGCGCCAACGUUCUCAACUAUGACACGCAAAACGCGUGCUCCGUUGAAUGGAGUUUAUCAUG

Variants of: B1
Assay: polymerase ribozyme fitness, log enrichment relative to wild type (log ratio); higher = more active; in vitro selection for triplet polymerase activity
Outline: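 Input and output libraries were sequenced on Illumina after a single in vitro selection round, run in triplicate on PCR-built, transcribed mutant libraries of each subunit of a heterodimeric triplet polymerase ribozyme. Selection annealed libraries to a biotinylated primer, the partner subunit and triplets, incubated them frozen at −7 °C, then gel-excised extended constructs for streptavidin-bead capture and RT-PCR. Genotypes with ≥10 input reads and ≥1 read per output were kept. Fitness is the logarithm, taken in base 2, of genotype enrichment divided by wild-type enrichment, using inverse-variance-weighted replicate averages.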
With C76A A142C the “polymerase ribozyme fitness (log ratio)” value was -2.3.
In the case of A49U A52G, the “polymerase ribozyme fitness (log ratio)” value is reported as -1.71.
For A39G C54U G74A G88A U90A A137G, the “polymerase ribozyme fitness (log ratio)” value was no more than -4.2.
In the case of A119G G128C, the “polymerase ribozyme fitness (log ratio)” value is reported as -1.98.
With G58C C87A G136A U144G the “polymerase ribozyme fitness (log ratio)” value was no more than -4.2.
For U56G A60G, the “polymerase ribozyme fitness (log ratio)” value was -0.515.
With C85G G112C A138U C149A the “polymerase ribozyme fitness (log ratio)” value was no more than -4.2.
With A16U A28C U55A C69A G71A G88C U102G C123U U130G the “polymerase ribozyme fitness (log ratio)” value was no more than -4.2.
For G80U A119C C123A, the “polymerase ribozyme fitness (log ratio)” value was -1.18.
In the case of C10U A16U A28G G46A A91G C93A U111G G152U, the “polymerase ribozyme fitness (log ratio)” value is reported as no more than -4.2.
In the case of C32A U55G C69G, the “polymerase ribozyme fitness (log ratio)” value is reported as -3.22.
With G50A A52G the “polymerase ribozyme fitness (log ratio)” value was -1.15.
For U13G G42C A49U G65A G71A G92A, the “polymerase ribozyme fitness (log ratio)” value was -3.74.
For C27A C85A C149U, the “polymerase ribozyme fitness (log ratio)” value was no more than -4.2.
In the case of A17U C69U U77C C87U, the “polymerase ribozyme fitness (log ratio)” value is reported as no more than -4.2.
With G68U C76U the “polymerase ribozyme fitness (log ratio)” value was no more than -4.2.
In the case of G46C G50U G84U A121C G124U, the “polymerase ribozyme fitness (log ratio)” value is reported as -3.31.
With U78A C93A G94U G140A G143A the “polymerase ribozyme fitness (log ratio)” value was no more than -4.2.
With A37U G58C the “polymerase ribozyme fitness (log ratio)” value was -0.362.
In the case of A26G G58C A60G U82C C93G A98U C103A C105G G143U, the “polymerase ribozyme fitness (log ratio)” value is reported as no more than -4.2.
For G50A C99A U145A, the “polymerase ribozyme fitness (log ratio)” value was -3.7.
With A19U G34A C38U G59C C95A C116A the “polymerase ribozyme fitness (log ratio)” value was -4.19.
For A16U A24C C27U C85U G126U, the “polymerase ribozyme fitness (log ratio)” value was no more than -4.2.
With A39G C57G the “polymerase ribozyme fitness (log ratio)” value was -2.43.
For A3U U6G C35U C76U C87G C103A A137C G152A, the “polymerase ribozyme fitness (log ratio)” value was no more than -4.2.
With G46U U53A U90C the “polymerase ribozyme fitness (log ratio)” value was no more than -4.2.
For C57U U127A U151G, the “polymerase ribozyme fitness (log ratio)” value was no more than -4.2.
With G59A C93A G141C the “polymerase ribozyme fitness (log ratio)” value was -4.03.
For C116G G143A, the “polymerase ribozyme fitness (log ratio)” value was -2.16.
With A12U G25U A52C U56A G67A A91G C103G the “polymerase ribozyme fitness (log ratio)” value was no more than -4.2.
In the case of A41C G42U A73U G83U U102G G124C A150G, the “polymerase ribozyme fitness (log ratio)” value is reported as no more than -4.2.
For A39C U55A C149U, the “polymerase ribozyme fitness (log ratio)” value was -3.62.
For C14A A20U A47U C76U C85A C95U A115U C131G, the “polymerase ribozyme fitness (log ratio)” value was no more than -4.2.
For C54A C123G, the “polymerase ribozyme fitness (log ratio)” value was -1.63.
With C38G C87U C125U G141A the “polymerase ribozyme fitness (log ratio)” value was -3.12.
For U61A, the “polymerase ribozyme fitness (log ratio)” value was -1.18.
In the case of A20C A26G U56A C63U G67U G80A C85U G86C C103G, the “polymerase ribozyme fitness (log ratio)” value is reported as no more than -4.2.
For U78C G83C G126A, the “polymerase ribozyme fitness (log ratio)” value was -0.883.
With G83A G94A the “polymerase ribozyme fitness (log ratio)” value was -1.17.
With A52U G81U C96U C114A A142U the “polymerase ribozyme fitness (log ratio)” value was -3.93.
With A39C A107C G141C the “polymerase ribozyme fitness (log ratio)” value was no more than -4.2.
In the case of U44A C72A C87U C99G U135A, the “polymerase ribozyme fitness (log ratio)” value is reported as no more than -4.2.
In the case of G92A A106C, the “polymerase ribozyme fitness (log ratio)” value is reported as -3.04.
In the case of U45A G136C, the “polymerase ribozyme fitness (log ratio)” value is reported as no more than -4.2.
In the case of C54U U56A A60G G84U G126U, the “polymerase ribozyme fitness (log ratio)” value is reported as -1.81.
In the case of C10G A23U U56A C93U, the “polymerase ribozyme fitness (log ratio)” value is reported as no more than -4.2.
For C27G C43A C72U C93A C125G G133U G143A, the “polymerase ribozyme fitness (log ratio)” value was no more than -4.2.
In the case of C5U A37U C51U, the “polymerase ribozyme fitness (log ratio)” value is reported as -1.26.
In the case of G58A A73U, the “polymerase ribozyme fitness (log ratio)” value is reported as -1.65.
For C57U G58C G86A U102A C116A, the “polymerase ribozyme fitness (log ratio)” value was -2.47.
With A16U A52C the “polymerase ribozyme fitness (log ratio)” value was -2.96.
In the case of C116U A120G, the “polymerase ribozyme fitness (log ratio)” value is reported as -0.0851.
In the case of G48A C54U G86C A106C, the “polymerase ribozyme fitness (log ratio)” value is reported as no more than -4.2.
For G62C G70A C79G G86C A142C C149U, the “polymerase ribozyme fitness (log ratio)” value was no more than -4.2.
With C114U A119U G143A the “polymerase ribozyme fitness (log ratio)” value was -3.89.
For C87A U90C C105U, the “polymerase ribozyme fitness (log ratio)” value was -3.59.
For G46U G50C A73G C76G A113U U139C, the “polymerase ribozyme fitness (log ratio)” value was no more than -4.2.
With U15G A39U G50C G70C G88U C105U the “polymerase ribozyme fitness (log ratio)” value was no more than -4.2.
For C85A U139C, the “polymerase ribozyme fitness (log ratio)” value was -4.1.
For A40U C103A U139G U146A, the “polymerase ribozyme fitness (log ratio)” value was -2.67.
In the case of U33G G94A, the “polymerase ribozyme fitness (log ratio)” value is reported as -3.04.
With C8G C96A the “polymerase ribozyme fitness (log ratio)” value was -4.07.
With C27U A30C C87G G128A C131A U134C G141U the “polymerase ribozyme fitness (log ratio)” value was -4.13.
For C27U A52C C85G C116G G128U A137G, the “polymerase ribozyme fitness (log ratio)” value was no more than -4.2.
With U13G A28U A37C A41G C99U C129A U134C A150C the “polymerase ribozyme fitness (log ratio)” value was no more than -4.2.
For U55A C87U A137C, the “polymerase ribozyme fitness (log ratio)” value was -3.92.
In the case of U31G A40U G42A C85A U148C, the “polymerase ribozyme fitness (log ratio)” value is reported as no more than -4.2.
For C14G A22G G94A C118G A150C, the “polymerase ribozyme fitness (log ratio)” value was no more than -4.2.
For C38U G83A C99G, the “polymerase ribozyme fitness (log ratio)” value was -3.15.
For U53A G143U, the “polymerase ribozyme fitness (log ratio)” value was -3.09.
In the case of A20U U61A C75U G81U C99G U148G, the “polymerase ribozyme fitness (log ratio)” value is reported as no more than -4.2.
With A19G U45G U90G G124A the “polymerase ribozyme fitness (log ratio)” value was no more than -4.2.
For A23C A26C A52U C63A C131U G141U U145C, the “polymerase ribozyme fitness (log ratio)” value was no more than -4.2.
In the case of C72U U146G, the “polymerase ribozyme fitness (log ratio)” value is reported as -0.793.
For C57U C87A, the “polymerase ribozyme fitness (log ratio)” value was -4.12.
With C14A A23U U31C U44A A73G G83C A110G the “polymerase ribozyme fitness (log ratio)” value was no more than -4.2.
With U6G A12U the “polymerase ribozyme fitness (log ratio)” value was -0.722.
With A98G C99G A122U the “polymerase ribozyme fitness (log ratio)” value was -1.25.
With A22G G48C G59A G83A the “polymerase ribozyme fitness (log ratio)” value was -4.06.
For A21U U33C G42A U45G U53A U90A C96U C114G, the “polymerase ribozyme fitness (log ratio)” value was -3.87.
In the case of A12C A30C A60G C75G G86U U90G A97C, the “polymerase ribozyme fitness (log ratio)” value is reported as no more than -4.2.
In the case of A30C C51U G58U G80A, the “polymerase ribozyme fitness (log ratio)” value is reported as no more than -4.2.
For A29U A30G C51U A89G C149A, the “polymerase ribozyme fitness (log ratio)” value was no more than -4.2.

From the RNAGym collection of RNA variant scans (doi:10.1073/pnas.2313332121)
